# Test results taken from patent publication US20180291110A1 (Hoffmann-La Roche, published 2018).
# B1: 2/99 VH7/VL12 (antibody, V domains shown)
# VH: QQLVETGGGLIQPGGSLRLSCAASGFSLSSYAMSWVRQAPGKGLEWIGYIWSGGSTDYASWAKGRFTISRDNSKNTLYLQMNSLRAEDTAVYYCARRYGTSYPDYGDANGFDPWGQGTLVTVSS
# VL: DIQMTQSPSSLSASVGDRVTITCRASQSISSYLAWYQQKPGKAPKLLIYRASTLASGVPSRFSGSRSGTDFTLTISSLQPEDFATYYCQQHYSSSNVDNTFGGGTKVEIK
# B2: 2/99 VH8/VL12 (antibody, V domains shown)
# VH: QQLVETGGGLIQPGGSLRLSCAASGFSLSSYAMSWVRQAPGKGLEWIGYIWSGGSTDYASWAKGRFTISKTSTTLYLQMNSLRAEDTAVYYCARRYGTSYPDYGDANGFDPWGQGTLVTVSS
# VL: DIQMTQSPSSLSASVGDRVTITCRASQSISSYLAWYQQKPGKAPKLLIYRASTLASGVPSRFSGSRSGTDFTLTISSLQPEDFATYYCQQHYSSSNVDNTFGGGTKVEIK
# B3: 2/99 VH9/VL12 (antibody, V domains shown)
# VH: QQLLESGGGLVQPGGSLRLSCAASGFTFSSYAMSWVRQAPGKGLEWVGYIWSGGSTDYADSVKGRFTISRDNSKNTLYLQMNSLRAEDTAVYYCAKRYGTSYPDYGDANGFDPWGQGTLVTVSS
# VL: DIQMTQSPSSLSASVGDRVTITCRASQSISSYLAWYQQKPGKAPKLLIYRASTLASGVPSRFSGSRSGTDFTLTISSLQPEDFATYYCQQHYSSSNVDNTFGGGTKVEIK
# B4: 2/99 VH11/VL12 (antibody, V domains shown)
# VH: QQLLESGGGLVQPGGSLRLSCAASGFSLSSYAMSWVRQAPGKGLEWVGYIWSGGSTDYADSVKGRFTISRDNSKNTLYLQMNSLRAEDTAVYYCARRYGTSYPDYGDANGFDPWGQGTLVTVSS
# VL: DIQMTQSPSSLSASVGDRVTITCRASQSISSYLAWYQQKPGKAPKLLIYRASTLASGVPSRFSGSRSGTDFTLTISSLQPEDFATYYCQQHYSSSNVDNTFGGGTKVEIK
# B5: 2/99 VH12/VL12 (antibody, V domains shown)
# VH: QVQLQESGPGLVKPSETLSLTCTVSGFSLSSYAMSWIRQPPGKGLEWIGYIWSGGSTDYNPSLKSRVTISVDTSKNQFSLKLSSVTAADTAVYYCARRYGTSYPDYGDANGFDPWGQGTLVTVSS
# VL: DIQMTQSPSSLSASVGDRVTITCRASQSISSYLAWYQQKPGKAPKLLIYRASTLASGVPSRFSGSRSGTDFTLTISSLQPEDFATYYCQQHYSSSNVDNTFGGGTKVEIK
# B6: 2/99 VH13/VL12 (antibody, V domains shown)
# VH: QVQLQESGPGLVKPSETLSLTCTVSGFSLSSYAMSWIRQPPGKGLEWIGYIWSGGSTDYNPSLKSRVTISVDTSKNQVSLKLSSVTAADTAVYYCARRYGTSYPDYGDANGFDPWGQGTLVTVSS
# VL: DIQMTQSPSSLSASVGDRVTITCRASQSISSYLAWYQQKPGKAPKLLIYRASTLASGVPSRFSGSRSGTDFTLTISSLQPEDFATYYCQQHYSSSNVDNTFGGGTKVEIK
# B7: 2/99 VH15/VL12 (antibody, V domains shown)
# VH: QQLQESGPGLVKPSETLSLTCTVSGFSLSSYAMSWVRQPPGKGLEWIGYIWSGGSTDYNPSLKSRVTISVDTSKNQVSLKLSSVTAADTAVYYCARRYGTSYPDYGDANGFDPWGQGTLVTVSS
# VL: DIQMTQSPSSLSASVGDRVTITCRASQSISSYLAWYQQKPGKAPKLLIYRASTLASGVPSRFSGSRSGTDFTLTISSLQPEDFATYYCQQHYSSSNVDNTFGGGTKVEIK
# B8: 2/99 VH16/VL12 (antibody, V domains shown)
# VH: QQLQESGPGLVKPSETLSLTCTVSGFSLSSYAMSWVRQPPGKGLEWIGYIWSGGSTDYNPSLKSRVTISVDTSKNQVSLKLSSVTAADTAVYYCARRYGTSYPDYGDANGFDPWGPGTLVTVSS
# VL: DIQMTQSPSSLSASVGDRVTITCRASQSISSYLAWYQQKPGKAPKLLIYRASTLASGVPSRFSGSRSGTDFTLTISSLQPEDFATYYCQQHYSSSNVDNTFGGGTKVEIK
# B9: 2/99 VH17/VL12 (antibody, V domains shown)
# VH: QQLQESGPGLVKPSETLSLTCTVSGFSLSSYAMSWVRQPPGKGLEWIGYIWSGGSTDYNPSLKSRVTISKDTSKNQVSLKLSSVTAADTAVYYCARRYGTSYPDYGDANGFDPWGPGTLVTVSS
# VL: DIQMTQSPSSLSASVGDRVTITCRASQSISSYLAWYQQKPGKAPKLLIYRASTLASGVPSRFSGSRSGTDFTLTISSLQPEDFATYYCQQHYSSSNVDNTFGGGTKVEIK
# B10: 2/99 VH18/VL12 (antibody, V domains shown)
# VH: QVQLQESGPGLVKPSQTLSLTCTVSGFSLSSYAMSWIRQHPGKGLEWIGYIWSGGSTDYAPSLKSRVTISVDTSKNQFSLKLSSVTAADTAVYYCARRYGTSYPDYGDANGFDPWGQGTLVTVSS
# VL: DIQMTQSPSSLSASVGDRVTITCRASQSISSYLAWYQQKPGKAPKLLIYRASTLASGVPSRFSGSRSGTDFTLTISSLQPEDFATYYCQQHYSSSNVDNTFGGGTKVEIK
# B11: 2/99 VH19/VL12 (antibody, V domains shown)
# VH: QSMQESGPGLVKPSQTLSLTCTVSGFSLSSYAMSWIRQHPGKGLEWIGYIWSGGSTDYAPSLKSRVTISVDTSKNQFSLKLSSVTAADTAVYYCARRYGTSYPDYGDANGFDPWGQGTLVTVSS
# VL: DIQMTQSPSSLSASVGDRVTITCRASQSISSYLAWYQQKPGKAPKLLIYRASTLASGVPSRFSGSRSGTDFTLTISSLQPEDFATYYCQQHYSSSNVDNTFGGGTKVEIK
# B12: 2/99 VH20/VL12 (antibody, V domains shown)
# VH: QSMQESGPGLVKPSQTLSLTCTVSGFSLSSYAMSWIRQHPGKGLEWIGYIWSGGSTDYAPSLKSRVTISVDTSKNQVSLKLSSVTAADTAVYYCARRYGTSYPDYGDANGFDPWGQGTLVTVSS
# VL: DIQMTQSPSSLSASVGDRVTITCRASQSISSYLAWYQQKPGKAPKLLIYRASTLASGVPSRFSGSRSGTDFTLTISSLQPEDFATYYCQQHYSSSNVDNTFGGGTKVEIK
# B13: 2/99 VH21/VL12 (antibody, V domains shown)
# VH: QSMQESGPGLVKPSQTLSLTCTVSGFSLSSYAMSWIRQHPGKGLEWIGYIWSGGSTDYASWAKSRVTISVDTSKNQVSLKLSSVTAADTAVYYCARRYGTSYPDYGDANGFDPWGQGTLVTVSS
# VL: DIQMTQSPSSLSASVGDRVTITCRASQSISSYLAWYQQKPGKAPKLLIYRASTLASGVPSRFSGSRSGTDFTLTISSLQPEDFATYYCQQHYSSSNVDNTFGGGTKVEIK
# B14: 2/99 VH22/VL12 (antibody, V domains shown)
# VH: QSMQESGPGLVKPSQTLSLTCTVSGFSLSSYAMSWVRQHPGKGLEWIGYIWSGGSTDYASWAKSRVTISVDTSKNQVSLKLSSVTAADTAVYYCARRYGTSYPDYGDANGFDPWGQGTLVTVSS
# VL: DIQMTQSPSSLSASVGDRVTITCRASQSISSYLAWYQQKPGKAPKLLIYRASTLASGVPSRFSGSRSGTDFTLTISSLQPEDFATYYCQQHYSSSNVDNTFGGGTKVEIK
# B15: 2/99 VH1/VL14 (antibody, V domains shown)
# VH: VQLVETGGGLIQPGGSLRLSCAASGFSLSSYAMSWVRQAPGKGLEWVGYIWSGGSTDYADSVKGRFTISRDNSKNTLYLQMNSLRAEDTAVYYCARRYGTSYPDYGDANGFDPWGQGTLVTVSS
# VL: DIVMTQSPDSLAVSLGERATINCKSSQSISSYLSWYQQKPGQRPKLLIYRASTLASGVPDRFSGSGSGTDFTLTISSLQAEDVAVYYCQQSYSSSNVDNTFGGGTKVEIK
# B16: 2/99 VH2/VL14 (antibody, V domains shown)
# VH: EVQLVETGGGLIQPGGSLRLSCAASGFSLSSYAMSWVRQAPGKGLEWVGYIWSGGSTDYADSVKGRFTISRDNSKNTLYLQMNSLRAEDTAVYYCARRYGTSYPDYGDANGFDPWGQGTLVTVSS
# VL: DIVMTQSPDSLAVSLGERATINCKSSQSISSYLSWYQQKPGQRPKLLIYRASTLASGVPDRFSGSGSGTDFTLTISSLQAEDVAVYYCQQSYSSSNVDNTFGGGTKVEIK
# B17: 2/99 VH5/VL14 (antibody, V domains shown)
# VH: QSMEETGGGLIQPGGSLRLSCAASGFSLSSYAMSWVRQAPGKGLEWVGYIWSGGSTDYADSVKGRFTISRDNSKNTLYLQMNSLRAEDTAVYYCARRYGTSYPDYGDANGFDPWGPGTLVTVSS
# VL: DIVMTQSPDSLAVSLGERATINCKSSQSISSYLSWYQQKPGQRPKLLIYRASTLASGVPDRFSGSGSGTDFTLTISSLQAEDVAVYYCQQSYSSSNVDNTFGGGTKVEIK
# B18: 2/99 VH6/VL14 (antibody, V domains shown)
# VH: QQLVETGGGLIQPGGSLRLSCAASGFSLSSYAMSWVRQAPGKGLEWIGYIWSGGSTDYADSVKGRFTISRDNSKNTLYLQMNSLRAEDTAVYYCARRYGTSYPDYGDANGFDPWGQGTLVTVSS
# VL: DIVMTQSPDSLAVSLGERATINCKSSQSISSYLSWYQQKPGQRPKLLIYRASTLASGVPDRFSGSGSGTDFTLTISSLQAEDVAVYYCQQSYSSSNVDNTFGGGTKVEIK
# B19: 2/99 VH7/VL14 (antibody, V domains shown)
# VH: QQLVETGGGLIQPGGSLRLSCAASGFSLSSYAMSWVRQAPGKGLEWIGYIWSGGSTDYASWAKGRFTISRDNSKNTLYLQMNSLRAEDTAVYYCARRYGTSYPDYGDANGFDPWGQGTLVTVSS
# VL: DIVMTQSPDSLAVSLGERATINCKSSQSISSYLSWYQQKPGQRPKLLIYRASTLASGVPDRFSGSGSGTDFTLTISSLQAEDVAVYYCQQSYSSSNVDNTFGGGTKVEIK
# B20: 2/99 VH8/VL14 (antibody, V domains shown)
# VH: QQLVETGGGLIQPGGSLRLSCAASGFSLSSYAMSWVRQAPGKGLEWIGYIWSGGSTDYASWAKGRFTISKTSTTLYLQMNSLRAEDTAVYYCARRYGTSYPDYGDANGFDPWGQGTLVTVSS
# VL: DIVMTQSPDSLAVSLGERATINCKSSQSISSYLSWYQQKPGQRPKLLIYRASTLASGVPDRFSGSGSGTDFTLTISSLQAEDVAVYYCQQSYSSSNVDNTFGGGTKVEIK
# B21: 2/99 VH9/VL14 (antibody, V domains shown)
# VH: QQLLESGGGLVQPGGSLRLSCAASGFTFSSYAMSWVRQAPGKGLEWVGYIWSGGSTDYADSVKGRFTISRDNSKNTLYLQMNSLRAEDTAVYYCAKRYGTSYPDYGDANGFDPWGQGTLVTVSS
# VL: DIVMTQSPDSLAVSLGERATINCKSSQSISSYLSWYQQKPGQRPKLLIYRASTLASGVPDRFSGSGSGTDFTLTISSLQAEDVAVYYCQQSYSSSNVDNTFGGGTKVEIK
# B22: 2/99 VH11/VL14 (antibody, V domains shown)
# VH: QQLLESGGGLVQPGGSLRLSCAASGFSLSSYAMSWVRQAPGKGLEWVGYIWSGGSTDYADSVKGRFTISRDNSKNTLYLQMNSLRAEDTAVYYCARRYGTSYPDYGDANGFDPWGQGTLVTVSS
# VL: DIVMTQSPDSLAVSLGERATINCKSSQSISSYLSWYQQKPGQRPKLLIYRASTLASGVPDRFSGSGSGTDFTLTISSLQAEDVAVYYCQQSYSSSNVDNTFGGGTKVEIK
# Target: T1, human transferrin receptor (recombinant, for surface plasmon resonance) (human, UniProt P02786 89-760)
# T1 construct: also called huTfR; human transferrin receptor-biotinylated
# T1 sequence (P02786 89-760 limits assumed): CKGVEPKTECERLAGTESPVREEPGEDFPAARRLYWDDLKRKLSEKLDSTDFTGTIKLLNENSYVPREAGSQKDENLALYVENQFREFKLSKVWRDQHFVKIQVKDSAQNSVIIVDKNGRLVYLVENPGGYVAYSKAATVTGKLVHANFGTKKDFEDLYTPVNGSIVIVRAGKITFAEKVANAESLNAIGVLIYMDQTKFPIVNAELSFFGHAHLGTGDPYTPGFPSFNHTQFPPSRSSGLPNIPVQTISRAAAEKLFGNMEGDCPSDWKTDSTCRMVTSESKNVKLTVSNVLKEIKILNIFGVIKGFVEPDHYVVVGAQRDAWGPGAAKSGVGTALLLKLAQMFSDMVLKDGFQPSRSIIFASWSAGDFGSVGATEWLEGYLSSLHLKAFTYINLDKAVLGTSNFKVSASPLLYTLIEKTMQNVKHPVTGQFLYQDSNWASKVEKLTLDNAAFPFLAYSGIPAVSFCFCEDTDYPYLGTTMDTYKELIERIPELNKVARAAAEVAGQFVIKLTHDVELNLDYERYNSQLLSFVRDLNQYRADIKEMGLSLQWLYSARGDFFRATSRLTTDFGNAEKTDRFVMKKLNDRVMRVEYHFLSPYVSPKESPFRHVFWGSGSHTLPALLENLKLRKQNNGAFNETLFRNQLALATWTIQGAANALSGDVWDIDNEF
# Assay: SPR 25C
row,Binder,koff [s⁻¹]
1,B1,0.00775
2,B2,0.00672
3,B3,0.001
4,B4,0.00787
5,B5,0.001
6,B6,0.00785
7,B7,0.00764
8,B8,0.00754
9,B9,0.00284
10,B10,0.001
11,B11,0.001
12,B12,0.001
13,B13,0.00754
14,B14,0.00644
15,B15,0.00299
16,B16,0.00244
17,B17,0.00233
18,B18,0.0022
19,B19,0.00153
20,B20,0.00104
21,B21,0.00332
22,B22,0.00351
